Positions count from the first letter of the chain named. One block for each molecule: values may come before it.
Columns and labels:
human α11β1 = human α11β1 (Homo sapiens, UniProt Q9UKX5); experiment: ELISA binding to recombinant human α11β1; conditions: binding Yes/No
Protocol: (§1) 0.25 μg/mL of target antigen (recombinant human or mouse α11β1) was plated in a 96-well plate over night at 4° C. Plates were washed (PBS with 0.1% Tween-20), blocked (PBS with 2% BSA and 0.05% Tween-20) for 1 hour at room temperature and incubated with a range of antibody concentrations for 1 hour at room temperature. Subsequently, plates were washed and incubated with biotinylated anti-rabbit/mouse/human IgG in a 1:1000 dilution buffer and incubated for 1 hour at room temperature. After washing the plates, Streptavidin HRP was added at 1:200 in dilution buffer and incubated for 1 hour at room temperature. Ultra TMB ELISA substrate solution was added and the plates incubated for 5 minutes on a plate shaker. The reaction was stopped by adding stop solution to each well and plates were read at 450 nm.

[1] = tested on: Human Pulmonary Fibroblasts; experiment: Fibroblast-to-Myofibroblasts Transition (FMT), αSMA expression; type: cell-based; conditions: Yes/No
Protocol: Human Pulmonary Fibroblasts (ScienCell) were cultured in complete Fibroblast Growth Medium (ScienCell) until 80% confluent. Cells were washed and harvested using Accutase. Cells were seeded onto tissue culture-treated 96 well plates at 20,000 cells/well in complete Fibroblast Growth Medium. After 24 hours, cells were washed and starved in serum reduced medium for an additional 24 hours. After starvation, cells were treated with TGFβ-1 (R&D Systems) with or without anti-α11 antibodies. A polyclonal rabbit anti-human α11 antibody was used as a positive control. Appropriate IgG isotype controls were also included. After 48 hours, cells were harvested, fixed, permeabilized and stained with AlexaFluor488 Labeled Anti-αSMA (α-smooth muscle actin) (Invitrogen). Cells were acquired on a FACS Verse (Benton Dickson) to determine expression levels of αSMA. Data were analyzed by gating on single cells and determining the geometric Mean Fluorescence Intensity (gMFI) in the FITC channel for each sample. gMFI for each sample was normalized to the untreated control and presented as % inhibition.
In addition to the binding abilities described above, it is important for an anti-α11β1 antibody to inhibit the fibroblast-to-myofibroblast transition (FMT). It is now appreciated that myofibroblasts are a heterogeneous cell population, existing in different activation states, with the main function of producing and contracting collagen extracellular matrix (ECM). FMT is a multi-step event that is controlled by a changing mechanical environment in tissues undergoing repair. TGFβ is one of the potent factors that potentiates this process and alpha smooth muscle actin (αSMA) is one of the main markers that becomes overexpressed when fibroblasts are undergoing the transition to becoming myofibroblasts. The presence of αSMA enhances fibroblast contraction and guides myofibroblast activation through an intracellular feedback loop. Because αSMA is the main molecular marker of myofibroblasts, the ability of the novel anti-α11β1 mAbs to inhibit αSMA expression in TGFβ-induced FMT was tested.

[2] = tested on: CHO-K1 cells expressing human α11; experiment: Cell adhesion inhibition (xCelligence), type I collagen; type: cell-based; conditions: Yes/No
Summary of the method: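 CHO-K1 cells expressing human α11 (0.6×10^6 cells/mL) were preincubated with mAbs across a concentration range for 20 min at 37° C, then seeded on wells coated with 100 ng/mL type I collagen and blocked with 3% BSA. Impedance-based adhesion was recorded over 6 h, and maximum adhesion was compared with untreated control.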

α1β1, α2β1 and/or α10β1 = experiment: Counter-screen for cross-reactivity to other collagen receptors; type: binding, human; conditions: cross-reactivity to α1β1, α2β1, α10β1
Protocol: Wistar rats were immunized with recombinant human α11β1 protein. An enzyme-linked immunosorbent assay (ELISA) was used to test an immune response against target human and mouse proteins. Subsequently, cell fusion (by electro fusion) was performed with animals that produced a good immune response. All fused cells were plated in a 96-well plate and supernatants were screened by ELISA against soluble human and mouse α11β1. Positive clones were counter-screened against human α1β1, α2β1 and α10β1. […] Purified antibodies were then generated from the selected clones and heavy chain and light chain variable domain sequences were obtained from each purified antibody.
10 mice from 5 different strains were immunized with an appropriate mixture of human α11β1, mouse α11β1 and tolerance breaking protein. Plasma titers were evaluated by ELISA against a mixture of human and mouse α11β1. Popliteal, inguinal, and iliac lymph nodes were collected. ELISA-positive anti-human/mouse α11β1 hybridomas were expanded and subjected to a secondary screen against human and mouse α11β1, control HIS protein, and a counter-screen was performed against human […], α2β1 and α10β1. Supernatant IgG concentration was sufficient for functional screening. Selected hybridomas satisfying all the criteria were cloned and clonal hybridomas were confirmed by ELISA against human and mouse α11β1 and subsequently scaled-up and IgGs were purified. Heavy and light chain variable regions of selected hybridomas were then sequenced.
α11β1 belongs to a family of collagen receptors and has a relatively high homology to them. Therefore, the novel antibodies of this invention were counter-screened against α1β1, α2β1 and/or α10β1. Table 2 includes results of cross-reactivity to the other receptors.

mouse α11β1 = mouse α11β1 (Mus musculus, UniProt P61622); experiment: ELISA binding to recombinant mouse α11β1; conditions: binding Yes/No
Sequence of mouse α11β1 (P61622 23-1141 limits assumed): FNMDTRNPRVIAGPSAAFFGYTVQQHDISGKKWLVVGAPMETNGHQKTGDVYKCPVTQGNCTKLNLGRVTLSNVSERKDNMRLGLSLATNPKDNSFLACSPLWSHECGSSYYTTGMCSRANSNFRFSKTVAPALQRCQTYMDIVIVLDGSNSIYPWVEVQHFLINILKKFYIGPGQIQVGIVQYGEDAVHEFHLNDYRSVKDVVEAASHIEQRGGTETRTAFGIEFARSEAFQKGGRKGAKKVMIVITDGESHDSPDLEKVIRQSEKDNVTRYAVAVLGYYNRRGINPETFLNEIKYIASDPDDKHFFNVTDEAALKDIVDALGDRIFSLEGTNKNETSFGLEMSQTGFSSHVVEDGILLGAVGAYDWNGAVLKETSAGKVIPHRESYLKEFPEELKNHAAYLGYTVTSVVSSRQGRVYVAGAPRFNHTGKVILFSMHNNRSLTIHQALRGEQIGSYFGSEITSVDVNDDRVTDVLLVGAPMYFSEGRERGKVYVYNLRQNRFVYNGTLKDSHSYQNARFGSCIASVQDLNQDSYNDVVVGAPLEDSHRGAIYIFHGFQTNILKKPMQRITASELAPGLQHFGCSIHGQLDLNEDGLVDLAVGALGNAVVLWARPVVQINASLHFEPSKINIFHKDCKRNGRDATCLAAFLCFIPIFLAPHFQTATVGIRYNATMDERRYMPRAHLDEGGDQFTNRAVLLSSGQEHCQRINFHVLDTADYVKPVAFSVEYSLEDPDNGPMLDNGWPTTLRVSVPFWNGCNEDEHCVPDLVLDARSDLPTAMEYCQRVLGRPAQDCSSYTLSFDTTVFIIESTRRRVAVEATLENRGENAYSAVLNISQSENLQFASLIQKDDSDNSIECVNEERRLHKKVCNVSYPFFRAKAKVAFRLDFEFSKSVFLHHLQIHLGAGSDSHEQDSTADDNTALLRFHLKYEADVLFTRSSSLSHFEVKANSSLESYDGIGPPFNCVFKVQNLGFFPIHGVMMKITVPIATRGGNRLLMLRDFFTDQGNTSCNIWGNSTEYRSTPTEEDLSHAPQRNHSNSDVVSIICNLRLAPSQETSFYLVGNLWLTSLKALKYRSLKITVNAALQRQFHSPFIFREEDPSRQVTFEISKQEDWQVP
Sequence of mouse α11β1 (P09055 21-728 partner limits assumed): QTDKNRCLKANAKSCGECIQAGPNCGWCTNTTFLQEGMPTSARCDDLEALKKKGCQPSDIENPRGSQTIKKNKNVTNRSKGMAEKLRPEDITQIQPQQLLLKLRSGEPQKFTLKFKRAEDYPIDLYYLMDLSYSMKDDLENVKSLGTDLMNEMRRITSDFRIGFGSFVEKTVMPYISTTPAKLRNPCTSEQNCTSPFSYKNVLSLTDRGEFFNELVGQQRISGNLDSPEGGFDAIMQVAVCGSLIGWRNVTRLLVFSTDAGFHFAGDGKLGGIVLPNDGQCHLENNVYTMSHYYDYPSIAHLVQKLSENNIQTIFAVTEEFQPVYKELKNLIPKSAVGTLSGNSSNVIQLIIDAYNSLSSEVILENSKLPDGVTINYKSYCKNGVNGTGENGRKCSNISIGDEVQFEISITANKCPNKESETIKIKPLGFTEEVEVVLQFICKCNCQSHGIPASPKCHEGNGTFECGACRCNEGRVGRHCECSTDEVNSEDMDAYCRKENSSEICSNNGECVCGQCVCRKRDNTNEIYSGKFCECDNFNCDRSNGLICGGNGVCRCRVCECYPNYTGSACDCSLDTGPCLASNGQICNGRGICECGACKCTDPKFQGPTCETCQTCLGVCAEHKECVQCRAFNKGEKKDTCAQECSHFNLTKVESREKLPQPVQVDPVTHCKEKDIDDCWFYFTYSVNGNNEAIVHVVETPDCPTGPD
Protocol: as §1

Sequence of human α11β1 (Q9UKX5 23-1141 limits assumed): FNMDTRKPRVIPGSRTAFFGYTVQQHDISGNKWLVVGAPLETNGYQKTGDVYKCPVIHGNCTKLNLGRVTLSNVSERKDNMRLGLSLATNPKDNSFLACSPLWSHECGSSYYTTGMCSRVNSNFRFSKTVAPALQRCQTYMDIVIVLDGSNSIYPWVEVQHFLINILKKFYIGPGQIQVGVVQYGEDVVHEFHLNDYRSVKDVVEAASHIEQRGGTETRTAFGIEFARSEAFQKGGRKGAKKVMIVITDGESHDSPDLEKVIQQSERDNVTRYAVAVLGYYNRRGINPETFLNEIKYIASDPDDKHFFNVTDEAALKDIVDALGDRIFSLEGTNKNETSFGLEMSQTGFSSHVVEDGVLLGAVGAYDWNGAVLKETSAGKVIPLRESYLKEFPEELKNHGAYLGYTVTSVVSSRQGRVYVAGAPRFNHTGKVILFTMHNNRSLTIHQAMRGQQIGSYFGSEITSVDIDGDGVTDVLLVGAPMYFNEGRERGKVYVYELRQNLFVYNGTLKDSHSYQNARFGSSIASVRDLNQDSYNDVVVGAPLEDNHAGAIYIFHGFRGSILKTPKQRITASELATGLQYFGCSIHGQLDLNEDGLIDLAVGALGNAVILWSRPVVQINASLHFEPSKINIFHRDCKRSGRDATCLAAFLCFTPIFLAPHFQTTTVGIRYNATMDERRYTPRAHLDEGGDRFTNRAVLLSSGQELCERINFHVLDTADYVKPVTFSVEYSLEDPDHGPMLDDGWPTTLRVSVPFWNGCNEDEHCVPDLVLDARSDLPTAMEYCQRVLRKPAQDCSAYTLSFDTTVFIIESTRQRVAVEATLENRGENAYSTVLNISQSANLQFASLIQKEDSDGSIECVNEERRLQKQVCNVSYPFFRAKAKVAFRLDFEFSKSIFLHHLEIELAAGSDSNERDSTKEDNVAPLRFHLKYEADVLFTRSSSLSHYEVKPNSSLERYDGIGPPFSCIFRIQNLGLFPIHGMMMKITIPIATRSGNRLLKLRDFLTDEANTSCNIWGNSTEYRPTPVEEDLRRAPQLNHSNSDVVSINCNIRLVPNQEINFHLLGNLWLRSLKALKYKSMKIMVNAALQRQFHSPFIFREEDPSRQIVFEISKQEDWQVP
Sequence of human α11β1 (P05556 21-728 partner limits assumed): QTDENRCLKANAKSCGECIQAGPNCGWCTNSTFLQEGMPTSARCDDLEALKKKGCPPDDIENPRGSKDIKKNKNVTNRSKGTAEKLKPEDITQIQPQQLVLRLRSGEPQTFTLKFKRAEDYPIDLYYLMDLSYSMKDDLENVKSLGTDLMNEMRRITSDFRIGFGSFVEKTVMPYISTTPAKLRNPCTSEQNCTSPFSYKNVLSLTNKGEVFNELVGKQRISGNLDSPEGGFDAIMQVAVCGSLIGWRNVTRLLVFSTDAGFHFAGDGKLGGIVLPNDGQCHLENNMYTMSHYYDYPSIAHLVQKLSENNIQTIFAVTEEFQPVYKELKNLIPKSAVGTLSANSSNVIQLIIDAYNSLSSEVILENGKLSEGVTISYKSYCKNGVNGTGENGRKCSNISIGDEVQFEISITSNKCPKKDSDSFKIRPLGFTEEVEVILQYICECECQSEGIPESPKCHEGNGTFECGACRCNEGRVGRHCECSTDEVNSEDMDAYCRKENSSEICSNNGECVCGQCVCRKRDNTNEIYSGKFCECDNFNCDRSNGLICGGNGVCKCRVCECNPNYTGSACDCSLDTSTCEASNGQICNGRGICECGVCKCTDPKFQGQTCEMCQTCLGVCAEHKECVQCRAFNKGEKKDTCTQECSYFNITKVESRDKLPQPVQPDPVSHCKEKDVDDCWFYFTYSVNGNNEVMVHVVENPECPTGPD

B2: 3-G5: mouse anti-α11β1 mAb; VH SEQ ID NO: 135, VL SEQ ID NO: 136 (antibody, V domains shown)
VH: QVQLQQSGAELARPGASVKLSCKASGYTFTSYGISWVKQRTGQGLEWIGEIFPRSSNTYYNEKFKGKATLTADKSSSTVYMEFRSLTSEDSAVYFCAREGGLAWFAYWGQGTLVTVSA
VL: DVVMTQTPLTLSVTIGQPASISCKSSQSLLYTNGNTYLNWLLQRPGQSPKRLIYLVSKLDSGIPDRFSGSGSGTDFTLRISRVEAEDLGVYYCLQSTHFPFTFGSGTKLEIK
Human α11β1 ELISA (human α11β1): Yes
Inhibition of FMT [1]: No
Inhibition of CHO-K1 adhesion to collagen [2]: No
Off Target (α1β1, α2β1 and/or α10β1): No
Murine α11β1 ELISA (mouse α11β1): Yes/Low

B4: 6-A12: mouse anti-α11β1 mAb; VH SEQ ID NO: 127, VL SEQ ID NO: 128 (antibody, V domains shown)
VH: QVTLKESGPGILQPSQTLSLTCSFSGFSLRTFAMGVGWIRQPSGKGLEWLAHIWWDDDKYYNPALKSRLTISKDTSKNQVFLKIANVDTADTATYYCARMPLTFYFDYWGQGTTLTVSS
VL: DVLMTQTPLSLPVSLGDQASISCRSSQSIVHSNGNTYLEWYLQKPGQSPKLLIYKVSTRFSGVPDRFSGSGSGTDFTLKISRVEAEDLGVYYCFQGSHVPFTFGGGTKLEIK
Human α11β1 ELISA (human α11β1): Yes
Inhibition of FMT [1]: No
Inhibition of CHO-K1 adhesion to collagen [2]: Yes
Off Target (α1β1, α2β1 and/or α10β1): No
Murine α11β1 ELISA (mouse α11β1): Yes/Low

B5: 6-B21: mouse anti-α11β1 mAb; VH SEQ ID NO: 123, VL SEQ ID NO: 124 (antibody, V domains shown)
VH: EVQLQQSGPELVKPGASVKISCKASGYTFTDYYMNWVKQSHGKSLEWIGDINPHNGGTSFIQKFKGKATLTVDKSSSTAYMELRSLTSEDSAVYYCAPLGRKEGFAYWGQGTLVTVSA
VL: DTVLTQSPASLVVSLGQRATISCRASKSVSTSGYSYMHWYQQKPGQPPKLLIYLASNLESGVPARFSGSGSGTAFTLNIHPVEEEDAATYYCQHSRELPYTFGGGTKLEIK
Human α11β1 ELISA (human α11β1): Yes
Inhibition of FMT [1]: No
Inhibition of CHO-K1 adhesion to collagen [2]: No
Off Target (α1β1, α2β1 and/or α10β1): No
Murine α11β1 ELISA (mouse α11β1): Yes/Low

Further lines, with some results ahead:

Human α11β1 ELISA (human α11β1): Yes
Off Target (α1β1, α2β1 and/or α10β1): No
Murine α11β1 ELISA (mouse α11β1): No
B1: 6-O12: mouse anti-α11β1 mAb; VH SEQ ID NO: 117, VL SEQ ID NO: 118 (antibody, V domains shown)
VH: EVKLEESGGGLVQPGGSMKLSCAASGFTFSDAWMDWVRQSPEAGLEWVAEIRNKAHNPATYYAESVKGRFTISRDDSKSSVYLQMNSLRAEDTGIYYCTLVAPDAMDYWGQGTSVTVSS
VL: DIVMSLSPSSLAVSVGEKVTMSCKSSQSLLYSRNQKNYLAWYQQKPGQSPKLLIYWASTRASGVPDRFTGSGSGTDFTLTISSVKAEDLAVYYCQQYYSYPYTFGGGTKLEIK
Inhibition of FMT [1]: No
Inhibition of CHO-K1 adhesion to collagen [2]: No

Human α11β1 ELISA (human α11β1): Yes
Off Target (α1β1, α2β1 and/or α10β1): No
Murine α11β1 ELISA (mouse α11β1): Yes/Low
B3: 10-F23: mouse anti-α11β1 mAb; VH SEQ ID NO: 125, VL SEQ ID NO: 126 (antibody, V domains shown)
VH: B4 VH with R30S, Q79H
VL: B4 VL with M4L, N35H, T58N
Inhibition of FMT [1]: No
Inhibition of CHO-K1 adhesion to collagen [2]: Yes

Reference: US12460006B2, “Antibodies against integrin alpha 11 beta 1” (Momenta Pharmaceuticals, Inc., priority 2019, dated 2025)
